Measurements reported in the nanobody polyreactivity screen of Harvey et al. (2022).

Assay: yeast display, Sf9 membrane polyspecificity reagent, FACS + sequencing; frameworks hold sequencing errors
Method in brief: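 Genes from sorted yeast were amplified by colony PCR, read by MiSeq 2 × 250 sequencing and filtered on CDR length. These cells carried a synthetic nanobody library in Saccharomyces cerevisiae BJ5465 and were sorted by FACS into low and high (top ~1%) gates on anti-HA and streptavidin fluorescence. Polyreactivity is labelled according to the gate of origin.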

| Sequence | polyreactivity (PSR sort gate) |
| --- | --- |
| QVQLVESGGGLVQAGGSLRLSCAASGFTFAYYTMGWYRQAPGKERELVAAINWSGGSTYYADSVKGRFTISRDNAKNTVYLQMNSLKPEDTAVYYSAPTCPYYNSRQGHQYDYWGQGTQVTVSS | high polyreactivity |
| QVQLVESGGGLVQAGGSLRLSCAPSGLTIGHYAMGWYRQAPGKERELVAAISSGGSTYYADSVKGRFTISRDNAKNTVYLQMNSLKPEDTAVYYCAAVTVGTAYYARTFYYWGQGTQVTVSS | high polyreactivity |
| PVQLVESGGGLVQAGGSLRLSCDAYGSIFAYNAMGWYRQAPGKERELVAAISVSDGITYYADSVKGRFTISRDNAKNTVYLQMISLKPEDTAVYYCPARTRGPSRAYDYWGQGTQGTVSS | low polyreactivity |
| QVQLVESGGGLVQAGGSLRLSCAASGFTFGSNAMGWYRQAPGKERELVAAISSTGSTYYADSVKGRFTISRDNAKNTVYLQMNSLKPEDTAVYYCNADSDTPRYDYWGQGTQVTVSS | low polyreactivity |
| QVQLVESGGGLVQAGGSLLLSCAASASTISYKAMGWYRHAPGQETELVAAIDRSVSTNYADSVKGRFTISRDNAKNTVYLQMNSLKPEDTAVYYCNARHPTDDIVIYDYWGQGTQVTVSS | low polyreactivity |
| QVQLVESGGGLVQAGGSLRLSCAASGYTFPYYAMGWYIQAPGKERELVAAISRSGGTTYYADSVKGRFTISRDNAKNTVYLQLNSLKPEDTAVYYCAALYGSRSTYHMDDYWGQGTQVTVSS | high polyreactivity |
| QVQLVDSGGGLVQAGGSLRLSCAASGRIFFPNGMGWYRQAPGKERELVATISRIGGSTYYADSVKGRFTISRDNAMNTVYLQRNSLKPEDTAVYYCAAQYSYGVYWTLPYGYNYWGQGTQVTVSS | low polyreactivity |
| QVQLVESGGGLVKAGGSLRLSCAASGRTFSSNAMGWNRQAPGKERELVAAISSSGAGTYYADSVKGRFTISRDNAKNTVYFQMTILKPEDSAVYYCAARANSYHSFTSPYDYWGQGTQVTVSS | low polyreactivity |
| QVQLVESGGGLVQAGGSLRLSCAASGFIFGRYAMGWYRQAPGKERELVAAISSGDDTDYADSVKGRFTISRYNAKNTVYLLMNSLIPEDTAVYYCARSRFWSPVNYRRTIEFDSWGQGTQVTVSS | low polyreactivity |
| QVQLVESGGGLVQAGGSLRLSCAASGITFQNYAMGWYKQAPGKERELVAAITRSGGRTYYADSVKGRFTISRDNAKNTVYLQMNSLKPEDTAVYYCAVYGIGRPYWYDYWGQGTQLTVSS | high polyreactivity |
| QVQLVESGGGLVQAGGSLRLSCAASGRIFVHYVMGWYRQAPGKERELVAAITVSGGGTYYADSVKGRFTISRDNAKNTVYFQMNSLTPEDTAVYYCNAVPHPYDWGQGTQLTVSS | low polyreactivity |
| QVQLVESGGGLVQAGGSLRLSCAASGYTFDTNVMGWYRQEPGKERELVATITGSGGSTYYADSVKGRFTISRDNAKNTVYLEMNSLKPEDTAVYYCAAYCYRYSFHWLKRWPYDWGQGTQVTVSS | high polyreactivity |
| QVQLVESGGGLVQAGGSLRLSCAASGLIFSGYDMGWYRQAPGKERELVAAITWSGGRTYADSVKGRFTISRDNAKNTVYLQMNSLKPEDTAVYYCNADAYIDYWPYTWDYDYWGQGTQVTVSS | high polyreactivity |
| QVQLVESGGGLVQAGGSLRLSCAASGSTISFYAMGWYRQAPGKERELVAAISFRGGRTYYADSVKGRFTISRDNAKNTVYLQMYSLKPEDTAVYYCAAVWYYGHARYDYWGQGTQVTVSS | high polyreactivity |
| QVQLVESGGGLVQAGGSLRLSCDASGSIFVKNAMGWYRQAPGKERELVAVITIRTATTYYADSVKGRFTISRDNAKNTVYLQMNSLKPEDTAVYYCASAKRQRGYLQREGNYWGQGTQVTVSS | low polyreactivity |
| QVKLVESGGVLVQAGGSLRLSCADSGRTFYPYAMGWYRQGPGKDRELVAAISRSGGSTYADSVKGRFTISRDNAKYTVYLQMNSLKPEDTAVYYCATRRKTYLSFNYDYWGQGTQVTVSS | low polyreactivity |
| QDQLVESGGGLVQAGGSLRLSCAASGSIFGGNTMGWYRQAPGKERELVAAISRSGGSTYYADSVKGRFTISRDNAKNTVYLQMNSLKPEDTEVYYCYRKQAGHAKGYDYWGQGTQVTVSS | high polyreactivity |
| QVQLVESGGGLVQAGGSLRLSCAASGFIFVFNAMGWYRQAPGKERELVAAITWSAGSTYYADSVKGRFTISRDTAKKTVDLQKNSLKPEDTAVYYCAADNWPWPEKPDKSILYDYWGQGTQVTVSS | low polyreactivity |
| QVQLVESGGGLVQAGGSLRLRCAASGSIFPYNAMGWYRQAPGKERELVAAISKRGRSTYYADSVKGRFTISRDNAKNTVYLHMNSLKPEDTAVYYSAARYPPYRSWYSYDYWGQGTQVTVSS | low polyreactivity |
| QVQLVESGGGLVQAGGSLRLSCAASGRIFKRYTMGWYRQAPGQERELVAGITFSGGSTYYADSVKGRFTISRDNAKNTVYLQMNSLKPEDTAVYYCNARVPPQGWGPWKAFDYWGQGTQVTVSS | low polyreactivity |
| QVQLVESGGGLVQAGGSLRLSCAASGSTFPVYAMGWYRQAPGKERELVAAITSGGSTYYADSVKGRFTISRDNAKNTVYLQMNSLKPEDTAVYYCAAEDSSPAYNHWGHGTQVTVSS | low polyreactivity |
| QVQLVESGGGLVQAGGSLRLSWAASGSTFAWYAMGWYRQAPGKDRELVATISSGGSTYYADSVKGRFTISRDNAKNTVYLQMNSLKTEDTAVYYCAADYLTPWVYWFSYGLDYWGQGTQVTVSS | low polyreactivity |

| Sequence | polyreactivity (PSR sort gate) |
| --- | --- |
| QVQLVESGGGLVQAGGSLRLSCAASGSIFRHNAMGWYRQAPGKERELVAAITSRGGSTYYADSVKGRFTISRDNAKNTVYLQMNSLKPEDTAVYYFAADYSSLSWGYDYWGQGTQVTVSS | high polyreactivity |
| QVQLVESGGGLVQAGGSLRLSCAASGSIFGAYTMGWYRQAPGKERELVAAISIGGSTNYADSVKGRFTISRDNAKNTVYLQMNSLKPEDTAVYYCAAYRQANRYGGEDYWGLGTQVTVSS | high polyreactivity |
| QVQLVESGGGLVQAGGSLRLSCAASGRICPGYVMGRYRQAPGKERELVAAITSTGRTYYADSVKGRFTISRDNEKKTVYLQMNSLKPEDTAVYYCAAVRSYYRGYDYWGQGTQVTVSS | high polyreactivity |
| QVQLVESGGGLVQARGSLRLSCAATGLTFYSNAMGWSRQAPGKERELVARISTGGSTYADSVKGRFTISRDNAKNTVYLQMNSLKPEDTAVYYCAKLPPRGIDDEYWGQGTQVTVSS | low polyreactivity |
| QVQLVESGGGLVQAGGSLRLSGAASGRTFRGNVMGWYRQAPGKEREFVAAITKSDGSTYYADSVKGRFTISRDNAKNTVYLQMNSLKPEDTAVYYCAARTARTGWPWFRYDYWGQGTQVTVSS | low polyreactivity |
| QVQLVESGGGLVQAGGSLRLSCAASGSIFKNNAMGWYRQAPGKERELVAAIRSSGGSTYYADSVKGRFTISRDNAKHTVYLQMKSLKPEDTAVYYCAARYRSYPTYYQYNYWGQGTQVTVSS | high polyreactivity |
| QVQLVESGGGLVQAGGSLRLSCAASGGIFSYAMGWYRQAPGKERELVAAISSGGSTYYADSVKGRFTISRDNAKNTVYLQMNSLKPEDTAVYYCAADGNGVDYDYWGQGTQVTVSS | low polyreactivity |
| QVKLVESGGGLVQAGGSLRLSCADSGRIFYIYAMGWYRQSPGKERELVAAISSGGTTNYADSVKGRLTISRDNAKNTVYLQMNSLKPEDTAVYYCACYWRSRNRFYWGQGTQVTVSS | high polyreactivity |
| QVQLVESGGGLVQAGGSLRLSCAASGRIFGAYAMGWYRQAPGKERELVATITSDGSTDYADSVKGRFTISRDNAKNTVYLQMNSLKPEDTAVYYCAVAYLWRPYDFREFDYWGQGTQVTVSS | low polyreactivity |
| QVQLVESGGGLVQAGGSLLLSCAASGRTFNVYAMGRYRQAPGKERELVAAINRGGRTNYADSVKGRYTISRDNAKNTVYLQMNSLKPEDTAVYYCAALRVYVNWHKIGYDYWGQGTQVTVSS | low polyreactivity |
| QVQLVESGGGLVQAGGSLRLSCAASGRIFQRNVMGWYRQAPGKERELVASITGGGTTNYADSVKGRFTISRDNAKNTVYLQMNSLKPEDTAVYYCAKGYGASNDPGYVRKRYGYWGQGTQVTVSS | low polyreactivity |
| QVQLVESGGGLVQAGGSLRLSCAASGTNGMGWYRQAPGKERELVAAISGSGGSTYYADSVKGRFTISRDNAKNTVYLQMNSLKPEDTAVYYGAADSIQYTARPYDYWGQGTQVTVSS | low polyreactivity |
| QVQRVESGGGLVLAGGSLRLSCAASAHIFAWYAMGWYRQAPGNERELVADISSRGGSTYYADSVKGRITISRDNAKNTVYLQMNSLKPEDTAVYSCAAVCYWTQDYDYWGQGTQVTVSS | low polyreactivity |
| QVQLVESGGGLVQAGGSLRLSCAASGSTFYYNGMGWYRQAPGKERELVAAITWTGDSTYYADSVKGRFTISRDNAKNTVYLQMNCLKPEDTAVYYCAAYYRKTGYDYWGQGTQVTVSS | high polyreactivity |
| QVQLVESGGGLVQAGGSLRLSCAASGSTFYANAMGWYRQAPGKERELVAAITRSGAGTYYADSVKGRFTFSRDNAKNTVYLQMNSLKPEDTAVYYCATRYGQWGQGTQVTVSS | high polyreactivity |
| QVQLVDSGGGLVQAGGSLRLSCAASGRISNYYAMGWYRQAPGKERELVAAITRSGGSTYYADSVKGRFTISRDNAKNTVYLQMNSLKPEDTAVYYCATDWTVRYDYWGQGTQVTVSS | high polyreactivity |
| QVQLVESGGGLVQAGGSLRLSCAASGITFNPYVMGWYRQAPGKERELVAVITSGGSTNYADSVKGRFTISRDNAKITVYLEMNSLKPEDTAVYYCNVDRRPYYVWRVTYDYWGQGTQVTVSS | low polyreactivity |
| QVQLVESGGGLVQAGGSLRLSCAASGLIFPTNAMGWYRQAPGKERELVAAISSVGSTYYADSVKGRFTISRDNAKNTVYLQMNSLKPEDTAVYYCAADWTLDPSYGYYADDYWGQGTQVTVSS | low polyreactivity |
| QVQVVESGGGLVQAGGSLRLSCAASGRIFAKYAMGWYIQAPGKERELVAAIDLSDGSTSYADSVKGRFTISRDNAKNTVYLQMNSLKPEDTAVYYCAKTWANVYAGAHDYWGQGTQVTVSS | low polyreactivity |
| QVQLVESGGGLVQAGGSLRLSCAASGFTFVYNALGWYRQAPGKERELVAAISGSGGSTYYADSVKGRFTISRDNAKNTVYLQMNSLKPEDTSVYYCNAVPSWRWEYDHWGQGTQVTVSS | high polyreactivity |
| QVQLQESDGGLVQAGGSLRLSCAASGSISPQYYMGWYRQAPGKEREFVAISKGTTTYYADSVKGRLTISRVNAKNTVYLQMNSLKPEDTAVYCCAAGRWLQNVHAYWDQGTQVTVSS | low polyreactivity |
